Experimental data: paper doi:10.1101/2022.07.10.499479
pKd: −log10 of the molar value. Read-outs that look alike come from different tables or passages of the source.

Columns and labels:
[1] = biological target: membrane-anchored iLID (improved Light Induced Dimerization protein with an N-terminal TatA-derived transmembrane helix) (Avena sativa)
[2] = biological target: membrane-anchored iLID (improved Light Induced Dimerization protein with an N-terminal TatA-derived transmembrane helix) (Avena sativa); experiment: 3D single-molecule tracking in live cells
[3] = biological target: membrane-anchored iLID (improved Light Induced Dimerization protein with an N-terminal TatA-derived transmembrane helix) (Avena sativa); experiment: 3D single-molecule tracking in live cells; remark: listed apart in the source
[4] = biological target: membrane-anchored iLID (improved Light Induced Dimerization protein with an N-terminal TatA-derived transmembrane helix) (Avena sativa); experiment: 3D single-molecule tracking in live cells; remark: listed apart in the source
[5] = biological target: membrane-anchored iLID (improved Light Induced Dimerization protein with an N-terminal TatA-derived transmembrane helix) (Avena sativa); experiment: 3D single-molecule tracking in live cells; remark: listed apart in the source
[6] = biological target: membrane-anchored iLID (improved Light Induced Dimerization protein with an N-terminal TatA-derived transmembrane helix) (Avena sativa); remark: listed apart in the source

A median bound time t (bound) [1] of 175 ms, a fraction iLID-associated [2] of 6% and a fraction iLID-associated [3] of 7% were found for SspB_(milli)-Halo labelled with JFX549 in this work.
A median bound time t (bound) [1] of 300 ms, a fraction iLID-associated [2] of 31% and a pKd [3] of 6.29 were found for SspB_(micro)-Halo labelled with JFX549 in this work. It also gave a fold increase in affinity upon 488 nm illumination against before [3] of 2 fold, a fraction iLID-associated [3] of 45% and a fraction iLID-associated [4] of 48%.
A fraction slowly diffusing (iLID-associated) [5] of 56%, a median bound time t (bound) [1] of 350 ms and a fraction slowly diffusing (iLID-associated) [3] of 48% were found for SspB_(nano)-Halo labelled with JFX549 in this work. The fraction of molecules at the membrane [6] was > 80%.
